Results as given in the nanobody polyreactivity screen of Harvey et al. (2022).

Assay: yeast display, Sf9 membrane polyspecificity reagent, FACS + sequencing; frameworks hold sequencing errors
Method in brief: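 A synthetic nanobody library was expressed on Saccharomyces cerevisiae BJ5465 by galactose induction for 36–48 hours. The library was stained for 1 hour at 4 °C with 10% biotinylated, detergent-solubilized Sf9 membrane reagent and enriched with streptavidin microbeads before FACS. Low and high (top ~1%) gates were set on anti-HA fluorescence for expression and streptavidin fluorescence for reagent binding, and each polyreactivity label reflects the gate of origin.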

## QVQLVESGGGLVQAGGSLRLSCAASGLIFQSYAMGWYRQAPGKERELVAVITWSGTSTYADSVKGRFTISRVNAKNTVYLQMNSLKPEDTAVYYCAASKYGSFTNFGYWGQGTQVTVSS
  polyreactivity (PSR sort gate): low polyreactivity

## QVQLVESGGGLVQAGGSLRLSCAASGSIFVSYAMGWYRQAPGKERELVAVISYSGVSTYYADSVKGRFTISRDNAKNTVYLQMYSLKPEDTAVYYCATRQYGTRHILKYNYWGQGTQVTVSS
  polyreactivity (PSR sort gate): low polyreactivity

## QVQLVESGGGLVQAGGSLRLSCAASGRTFSFYAMGWYRQAPGKERELVAAISRGGGSTYYADSVKGRFTISRDNAKNTVYLQMNSLKPEDTAVYYCAAPFLYRRGYDYWGQGTQVTVSS
  polyreactivity (PSR sort gate): high polyreactivity

## QVQLVESGGCLVQAGGSLRLSCASSGITFPGYAMGWYRQAPGKERELVAVIRKSGTSTYYADSVKGRFTISRDNAKNTVDLQMNSLKPEDTAVYYCAAGGPSTLDDYWGQGTQGTVSS
  polyreactivity (PSR sort gate): low polyreactivity

## QVQLVESGGGLVQAGGSLRLSCAASGRIFRFYTMAWYRQAPGKERELVAAITQRGGRTYYADSVKGRFTISRDNAKNTVYLLMNSLKPEDTAVFYCAATTTVAEYDYWGQGTQVTVSS
  polyreactivity (PSR sort gate): high polyreactivity

## QVQLVESGGGLVQAGGSLRLSCAASGSTFAQNTMGWYRQAPGKERELVATISDGGGSTYYADSVKGRFTISRDNAKNTVYLQMNSLKPDDTAVYYCNTDRFWPSDYWGQGTQVTVSS
  polyreactivity (PSR sort gate): low polyreactivity

## QVHLVESGVGLVQAGGSLRLRCAASGRTLYYYAMGWYRQAPGKQSELVAAINSGGSTKYADSVKGRFTISRDNAKNTVYLQMHSLKPEDTAVYFCAARGYIRGGYYWGQGTQVTVSS
  polyreactivity (PSR sort gate): high polyreactivity

## QVQLVESGGGLVQAGGSLRLSCAASGRTFYGNAMGWYRQAPGKERELVAAITFRTSSTYYADSVKGRFTISRDYAKNTVYLQMNSLKPDDTAVFYCAALWIYSGWRYDYWGQGTQVTVSS
  polyreactivity (PSR sort gate): high polyreactivity

## QVQLVESGGGLVQAGGSLRLSCAASGSNVAVYVMGWYRQAPGKERELVAAISISAARTYYADSVKGRFTISRDNAKNTVYLQMNSLKPEDTAVYYGAARLVFRNDSWGQGTQVTVSS
  polyreactivity (PSR sort gate): high polyreactivity

## QVQLVESGGGLVQAGGSLRLSCAASGFTIYYYAMAWYRQAPGKERELVAAISYSGGSTYYADSVKGRFTISRDNAKNTVYLQMNSLKPEDTAVYYCAVDWYGSYGYGGSQKSDYWGLGTQVTVSS
  polyreactivity (PSR sort gate): high polyreactivity

## QDQLVESGGGLVLSGGRLRLSCAASGSNFSFYAMGWYRQAPGKERELVAGIRWRGGTSTFYADSVKWRFTISRDNAKNTVYLQMNSLKPEDTAVYYCAAKRRTGGNGYWGQGTQVTVSS
  polyreactivity (PSR sort gate): high polyreactivity

## QVQLVETGGGLVQAGGSLRLSCAASGFTFKLYAMGWYRQAPGKERVLVAAISSSGGRTYYADSVKGRFTISRDNAKNTVYLQMNSLKPEDTAVYYCNAVRTVNDYHYDYWGQGTQVTVSS
  polyreactivity (PSR sort gate): high polyreactivity

## QVQLEESGGGLVQAGGSLRLSCAASGFIFDSYAMGWYRQAPGKERELVAAISWSGGRTYYADSVKGRFTISRDNAKNTVYLQMNSLKPEDTAVYYCNVLVHSLSGRKYDYWGQGTQVTVSS
  polyreactivity (PSR sort gate): high polyreactivity

## QVQLVESGGGLVQAGGSLRLSCAASGFTFSWYAMGWYRQAPGKEMELVAAIDDGGSTYYADSVKGRFTISRDNAKNTVYLQMNSLKPEDTAVYYCNARGYGTLNVRRERMDYWGQGTQVTVSS
  polyreactivity (PSR sort gate): high polyreactivity

## QVQLVESGGGLVQAGGSLRLSCAASGSNFPHYTMGWYRQAPAKERELVAAISNYGSSTYYADSVKGRFTISRDNAKNTVYLQMNSLKPEDTAVYYCNADDYGYSPGVNYWGQGTQVTVSS
  polyreactivity (PSR sort gate): low polyreactivity

## QVQLVESGGGLVQAGGSLRLSCAPSGRIFYSNDMGWYRQAPGKERELVAAIRDSAGSTRYADSVKGRFTISRVNAKNTVYLQMNSLKPEDTAVFYGHKDYVSIYFEYLDDYWGQGTQVTVSS
  polyreactivity (PSR sort gate): low polyreactivity

## HVQLQESAGGLVQAGGSLRLSCAASGTISSREAMGWYSQAPGKERDFVATIASGTTTYYADSVKGSFTISRDNAENTVYLQTNTLKPEDTAVYYCAAPTIQIYPFYYWGHGTQVTVSS
  polyreactivity (PSR sort gate): high polyreactivity

## QVQLVESGGGLVQAGGSLRVICAPSGSTFGVYAMGWYRQAPGKERDLVAAISDTGGSTYYADSVKGRFTISRDNAKTTVYLQMNSLKPEDTAVYYCAVEVGYTDSPYSYDYWGHGTQVTVSS
  polyreactivity (PSR sort gate): low polyreactivity

## QVQLVESGGGLVQAGGSLRLSCAASGFTLHVYAMGWYRQAPGKERELVAAISTGGNTNYADSVKGRFTISRDNAKNTVYLQMNSLKAEDTAVYYCNARYTSRRSRRPYYEWGQGTQVTVSS
  polyreactivity (PSR sort gate): high polyreactivity

## QVQLVETGGGLVQAGGSLRLSCAASGITFYYYAMGWYRQAPGKERELVAAINSGGITNYADSVKGRFTLSRDIAKKTVYLQMNSLKPEDTAVYYCAASSGFRYRYGYWGQGTQVTVSS
  polyreactivity (PSR sort gate): high polyreactivity

## QVQLVESGGGLVQAGGSLRISCAASAITFPRNAMGWYREAPGKERELVAAITSVGSTKYADSVKGRFTFSRDNAKNTVYLQMNSLKPEDTAVYYCATRGASAISNSVRWSYYYWGQGTQVTVSS
  polyreactivity (PSR sort gate): low polyreactivity

## QVQLVESGGGLVQAGGSLRLSCAASGRIFGAYAMGWYRQARGKERELVAAIDIRGGNTYYADSVKGRFTISRDNAKNTVYLQMNSLKPEDTAVYYCPADTWYDAYNYWGQGTQVTVSS
  polyreactivity (PSR sort gate): low polyreactivity

## QVHLVESGGGLVQAGCSLRVSCAASGRIFLYTGKGWSRQAAGKERELVAAISSGGSTYYADSVKGRFTISRDNAKNTVYLQMNSLKPEDTAVYYCAKEGHVVIFYIGQYELDFWGQGTQVTVSS
  polyreactivity (PSR sort gate): low polyreactivity

## QVQLVETGGGLVQAGGSLRLRCAASGSIFVPYTMGWYRQAPGKERELVASISYSGGTTYYADSEKGRFTISRDNAKNTVYLQMNSLKPEDTAVYYCAADWDESYSYRRYRHYDYWGQGTQLTVSS
  polyreactivity (PSR sort gate): low polyreactivity

## QVQLVESGGGLVQAGGSLRLSCAASGFTFTSYVMGWYRQAPGKEREFVAAITRSAGGTYYADSVKGRFTISRDNAQNTFYLQINSLKPEDTAVYYCAAEYYVPGGGAYRGDYWGQGTQVTGSS
  polyreactivity (PSR sort gate): high polyreactivity

## QVQLVESGGGLVQAGGSLRLSCAASGSIFIGYAIGWYRQAPGKERELVAAITNGGRTYFADSVKGRFTISRDNAKNTVYLQMISLKPEDTAVYYCAAVPSQTYRRTPYLWHDYWGQGTQVTVSS
  polyreactivity (PSR sort gate): high polyreactivity

## QVQLVESGGGLVQAGGSLRLSCAATGINITSNTMGWYRLAPGKEREFVASINWNGSSTYADSVKGRFTISRDNAKNTVYLQMNSLKPEDTAVYYCNADYNRNSVQFSLYDYWGQGTQVTVSS
  polyreactivity (PSR sort gate): low polyreactivity

## QVQLVESGGGLVQAGGSLRLSCAASGRTFFIYAMGWYRQAPGKERELVAAITRGGTNYADSVKGRFTISRDNAKNTVYLQMNSLKPEDTAVYYCYTYTYAGYNYWGQGTQVTVSS
  polyreactivity (PSR sort gate): high polyreactivity

## QVQLVESGGGLVQAGGSLRISSAASGRTFGPYAIGWYRQAPGKESELVAAITSSGGSTYYADSVKGRFTISRDTAKNTFYLQMNSLKPEDTAVYYCNKLYWRESPDYDYWGQGTQVTVSS
  polyreactivity (PSR sort gate): low polyreactivity

## QVQLVESGGGLVQAGGSLRLSCAASGFTFDSYAMGWYRQAPGKERELVASISSSGSTNYADSVKGRFTISRDNAKNTVYLQMNSLKPEDTAVYYCAAESRYPFIYEYWGQGTQVTVSS
  polyreactivity (PSR sort gate): low polyreactivity

## QVQLVESGGGLVQAGGSLRLSCAASGLTIRYYAMGWYRKAPGKERELVAAISSSGGRTYYADSVKGRFTISRDNAKNTVYLQMNSLKPEDTAVYYCSRDYGYGLMGYWGQGTQVTVSS
  polyreactivity (PSR sort gate): high polyreactivity

## QVQLVESGGGLVQAGGSLRLRCAASGSTYTVYAMGWYRQAPRKDRELVAAIRDGSSTNYADSVKGRFTISRDNAKNTVYLQRNSLKPEDTAVYYCNAPYPPTGYGDDDYWGQGTQVTVSA
  polyreactivity (PSR sort gate): low polyreactivity

## QVQLVESGGGLVQAGGSLRLSCAACGSTFWYYVMGWYRQAPGKERELVAAISTRGDSTYYADSVKGRFTISRDNAKNTVYLQMNSLKAEDTAVYYCAKSRQSSGRVRFDYWGQGTQVTVSS
  polyreactivity (PSR sort gate): low polyreactivity

## QVQHVESGGGLVKAGGSLRLSCAASGFTFGVYAMGWYRLAPGKERELVAAISRRGTSTYYADSVKGRFTISRDNAKNTVYLQMNSLKPEDTAVYYCNARRYQVTVDHWGQGTQVTVSS
  polyreactivity (PSR sort gate): high polyreactivity

## QVQLVESGGGLVQAGGSLRLSCAASGFTFSYYAMGWYRQAPGKERELVATITWDGGSTYYADSVKGRFTISRDNAKNTVYLQMNSLKPEDTAVYYCAAQYYRWQTKYDYWGQGTQVTVSS
  polyreactivity (PSR sort gate): high polyreactivity

## QVQLVESGGGLVQVGGSLRLSCAASGFIFTHYAMGWYRQAPGKERELVAAISVDGGDTYYADSVKGRFTISRDNAKNTVYLQMNSLKPEDTAVYYYWGQGTQVTVSS
  polyreactivity (PSR sort gate): low polyreactivity

## QVQLVESGGGLVQAGGSLSLSCAASGFNSSHYAMGWYRQAPGKERELVATISSGGSTYADSVKGRFTISRDNAKNTVYLQMNSLKPEDTAVYYCDKGVRYKQYHIMYYWGQGTQVTVSS
  polyreactivity (PSR sort gate): high polyreactivity

## QVQLVESGGGLVQAGGSLRLSCAASGSTFHRNGMGWYRQAPGKERELVAAISRTGGSTYYADSEKGRFTISRDNAKNTVYLQMNSLKPEDTAVYYCAAQGNNYVRHTYGYWGQGTQVTVSS
  polyreactivity (PSR sort gate): low polyreactivity

## QVQLVESGGGLVQAGGSLRLSCAASGRTIYYYVMGWYRQAPGKERQLVAAISASGGSTRYADSVKGRFTISRDNAKNTVYLQMNSLKPEDTAVYYCAASRRYGGYRFDYWGQGTQVTVSS
  polyreactivity (PSR sort gate): high polyreactivity

## QVQLVESGGGLVQAGGSLRLSCAASGSTFYYNGMGWYRQAPGKEREFVAAITSSGTSTHYADSVKGRFTISRDNAKNTVYLQMNSLKPEDTAVYYCNRYGAHVSTAYYYWGQGTQVTVSS
  polyreactivity (PSR sort gate): high polyreactivity

## QVQLGESGGGLVQAGGSLRLSCAASGSIFTYNPMGWYRQAPGKERELVAAITIDDGSTYYADSVKGRFTISRDNAKNTVYLQMNSLKPEDTAVYYCAADFYGVSYSGGEMDYWGLGTQVTVSS
  polyreactivity (PSR sort gate): low polyreactivity

## QVQLVESGGGLVQAGGTLRLSCAASGGIFGGYAMGWYRQAPGTEGELVAVITSGGSTYYADSVKGRFTISRDNAKNTVYLQMNSLKPEDTAVYYCAADGHSYSYSTYDYWGQGTQVTVSS
  polyreactivity (PSR sort gate): low polyreactivity

## QVQLVESGGGLVQAGGSLRLSCAASGSILTDNAMGWYRQAPGKERELVAAITSSGNTNYADSVKGRFTISRDNAKNTVYLQMKSLKPEDTAVYYCAAVSYYKHWTDWLPVGEDYWGQGTQVTVSS
  polyreactivity (PSR sort gate): low polyreactivity
